Reference: patent US20070292420A1 (Janssen / Centocor, published 2007)

Assays:
[1] = biological target: T1, recombinant human IL-6 (human, UniProt P05231 30-212); assay: SPR (BIAcore 2000, 25 C); cCLB8 captured on anti-human Fc, IL-6 as analyte; 1:1 model; second experiment
T1 construct: Bought recombinant protein; also called rhIL-6; HuIL-6
Description: (§1) An anti-human Fc (1.8 mg/ml) was diluted to a concentration of 50 μg/ml in NaOAc buffer (10 mM, pH 4.8) and coupled to the carboxymethylated dextran matrix of a CM-5 sensor chip using the manufacturer's amine-coupling chemistry as described in the BIAcore systems manual. Using the surface preparation wizard aiming for 10000 RU, the carboxyl groups on the sensor surfaces were first activated with NHS/EDC followed by the addition of the anti-human Fc. The remaining activated groups were blocked by the injection of 1M ethanolamine. Each of the flow cells was coupled individually. Employing these conditions, the four flow cell surfaces containing 7554-9571 resonance units (RU) of anti-human Fc were prepared. In preliminary experiments, it was determined that three injections (15 ul at 30 μl/min) 100mM H3PO4/0.05% CHAPS would efficiently remove the bound immunoglobulin and preserve the binding capacity of the immobilized anti-human Fc.
(§2) Two experiments were performed on the BIAcore 2000 at 25 °C and a flow rate of 30 μL/min. cCLB8 was dissolved in HBS at 5 ug/ml. […] A designated amount of antibody was flowed over its respective flow cell followed by injections of 30 μl of each IL-6 concentration at 30 μl/min (association phase) and an uninterrupted 800 seconds of buffer flow (dissociation phase). The surface of the chip was regenerated by three sequential injections of 15 μl each with 100 mM H3PO4/0.05% CHAPS. The injections of HBS serve as a reference (blank sensogram) for the subtraction of bulk refractive indices for analysis. Using the 1:1 model in BIAanalysis 3.0, a local fit was done for both dissociation (kd, [s−1] and association (ka, [M-1s−1]) and the dissociation constant (KD, [M]) calculated (kd/ka).
(§3) Analysis was done using BIAevaluation version 3.0. Kinetic constants were derived from sensogram data by fitting the experimental curves to the rate equations derived from models of the interaction mechanism. A global analysis using a 1:1 binding model with local RUmax fit, the ka, kd, KD were determined (Table 1).

[2] = biological target: T1, recombinant human IL-6; assay: cell-based or functional assay
[3] = biological target: T1, recombinant human IL-6; assay: SPR (BIAcore 2000, 25 C); cCLB8 captured on anti-human Fc, IL-6 as analyte; 1:1 model
Description: as §1, §2, §3

[4] = biological target: T1, recombinant human IL-6; assay: solid phase EIA, plate coated with recombinant human IL-6 at 1 µg/mL, detection with HRP goat anti-human IgG, OD 490
Description: A solid phase EIA was used to assess binding characteristics of cCLB8 Mab to human IL-6. Briefly, plates were coated with recombinant human IL-6 (RDI) at 1 μg/mL in PBS overnight at 4° C. After washing in 0.15M saline containing 0.02% (v/v) Tween 20, the wells were blocked with 1% (w/v) BSA in PBS, 200 μL/well for 1 hour at RT. Purified antibody was incubated in two-fold serial dilutions from a starting concentration of 5 μg/mL for 1 hour at 37° C. The plate was washed and then probed with 50 μL/well HRP-labeled goat anti-human IgG (Tago) diluted 1:20,000 in 1% BSA-PBS for 1 hour at RT. The plate was again washed and 100 μL/well of the citrate-phosphate substrate solution (0.1 M citric acid and 0.2M sodium phosphate, 0.01% H₂O₂ and 1 mg/mL OPD) was added for 15 minutes at RT. Stop solution (4N sulfuric acid) was then added at 25 μL/well and the absorption at 490 nm quantitated using an automated plate photometer.

Kd [1]: 0.14 nM
koff [1]: 5.2e-05 s⁻¹
kon [1]: 370000 M⁻¹ s⁻¹
Kd [3]: 0.057 nM
koff [3]: 6.2e-05 s⁻¹
kon [3]: 1.1e+06 M⁻¹ s⁻¹
EC50 (read off the curve) [4]: ~4 ng/mL
B1: chimeric CLB8 anti-human IL-6 monoclonal antibody (antibody, IgG1, V domains shown)
VH: EVQLVESGGKLLKPGGSLKLSCAASGFTFSSFAMSWFRQSPEKRLEWVAEISSGGSYTYYPDTVTGRFTISRDNAKNTLYLEMSSLRSEDTAMYYCARGLWGYYALDYWGQGTSVTVSS
VL: QIVLIQSPAIMSASPGEKVTMTCSASSSVSYMYWYQQKPGSSPRLLIYDTSNLASGVPVRFSGSGSGTSYSLTISRMEAEDAATYYCQQWSGYPYTFGGGTKLEIK
notes: Murine CLB-8 variable regions joined to human constant regions; IgG1 and kappa are named only as preferred; also called anti-IL-6 cCLB-8 antibody; CNTO 328
EC50 of inhibition of IL-6 induced 7TD1 cell proliferation (luminescent ATP assay) [2]: 7.2 ng/mL
